Experiment: yeast display, Sf9 membrane polyspecificity reagent, FACS + sequencing; frameworks hold sequencing errors
Procedure, shortened: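 Galactose-induced (36–48 hours) yeast carrying a synthetic nanobody display library were exposed to 10% biotinylated, detergent-solubilized Sf9 membrane reagent at 4 °C for 1 hour. FACS followed streptavidin microbead enrichment, using low and high (top ~1%) gates for expression (anti-HA) and reagent binding (streptavidin). Colony PCR, MiSeq 2 × 250 sequencing and CDR-length filtering followed. Labels for polyreactivity reflect the gate of origin.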

Which “polyreactivity (PSR sort gate)” value does the source give for “QVQLVDSGGGLVQAGGSLRLSCAASGLIFSYNAMGWYRQAPGKERELVATIRRVGSTNYADSVKGRFTISRDNEKNTVYLQMNSLKPEDTAVYYCAARSLRYGRGMYYWGQGTQVTVSS” here?
The value was “high polyreactivity”.

For “QVQLVDSGGGLVQAGGSLRLSCAASGLSFLVNAMGWYRQAPGKERELVAAIDRDGGITYADSVKGRFTISRDNAKNTVYLQMNSLKPDDTAVSYCAADPSSYGRFTYDYWGQGTQVNVSS”, which “polyreactivity (PSR sort gate)” value is on record?
Its value is “low polyreactivity”.

Which “polyreactivity (PSR sort gate)” value does the source give for “QVQLVDSGGGLVQAGGSLRLSCAASGLTFRRYAMAWYRQAPGKERELVAGISRGGSTYYADSVKGRFTISRDNAKNTVYLQMTSLKPEDTAVYYCAAYNRGTYPVQPVPYDMDYWGQGTQVTVSS” here?
Its value is “low polyreactivity”.

For “QVQLVDSGGGLVQAGGSLRLSCAASGLTILPNAMGWSRQAPGNDRELVAAISWGDGNTYYADSVKGRFTISRDNAKNTVYLQMNSLKPEDTAVYYCAADVIKSRTYDYWGQGTQVTVSS”, which “polyreactivity (PSR sort gate)” value is on record?
The value was “low polyreactivity”.

Which “polyreactivity (PSR sort gate)” value does the source give for “QVQLVDSGGGLVQAGGSLRLSCAASGNIFTSYARGWYRQAPGKERELVAAISSGGRTSYADSVKGRFTISRDNAMNTVFLQMNSLKPDYTAVYYCAAYYRRWPREYYYWGQGTQVSVSS” here?
The value was “high polyreactivity”.

Which “polyreactivity (PSR sort gate)” value does the source give for “QVQLVDSGGGLVQAGGSLRLSCAASGRIFGAYTMGWYRQAPGKEREFVADITSGGSTDYADSVKGRFTISRDNAKNTVSLQMNSLKPEDTAVYYCAAGGWVASLYLYDYWGHGTQVTVSS” here?
Its value is “low polyreactivity”.

For “QVQLVDSGGGLVQAGGSLRLSCAASGRIFGYNAMGWSRQAPGKERELVAAISSGGGTNYADSVKGRFTISRDNAKNTVYLQMNSLKPEDTAVYYCAVRRRRYHTYYRGYDYWGQGTQVTVSS”, which “polyreactivity (PSR sort gate)” value is on record?
Its value is “low polyreactivity”.

For “QVQLVDSGGGLVQAGGSLRLSCAASGRIFHCYAMGWYRQAPGKERELVAAIRASGGRTYYADSVKGRFTISRDNAKNTVYLQMNSLKPEDTAVYYCAADSVKYGGDYWGQGTQVTVSS”, which “polyreactivity (PSR sort gate)” value is on record?
Its value is “high polyreactivity”.

For “QVQLVDSGGGLVQAGGSLRLSCAASGRIFPYYDMGWYRQAPGKERELVAAITWNGGSTYYADSVKGRFTISRDNAKNTVYLQMNSLKPEDTAVYYWAVEPYYYGEDYWGQGTQVTVSS”, which “polyreactivity (PSR sort gate)” value is on record?
The value was “low polyreactivity”.

For “QVQLVDSGGGLVQAGGSLRLSCAASGRTFAWNAMGWYRQAPGKERELVAVITSGGSTNYADSVKGRFTISRDNAKNTVYLQMNSLKPEDTAVYYCATGDGPSLFDYWGQGTQVTVSS”, which “polyreactivity (PSR sort gate)” value is on record?
Its value is “low polyreactivity”.

Which “polyreactivity (PSR sort gate)” value does the source give for “QVQLVDSGGGLVQAGGSLRLSCAASGRTFGRKAMGWYRQAPGERELVAVISRGGSTYYADSVKGRFTISRDNAKNTVYLQMNSLKPEDTAVYYCNADTVYTRTAPYDYCGQGTQVTVSS” here?
The value was “low polyreactivity”.

With “QVQLVDSGGGLVQAGGSLRLSCAASGRTFIFYAMGWSRQAPGKERELVAAISSGGSTDYADSVKGRFTISRDNAKNTVYLQMNSLKPEDTAVYFCKADTFQYPSTYDYWGQGNQVTVSS” as the sequence, how does the “polyreactivity (PSR sort gate)” value read?
Its value is “low polyreactivity”.

Which “polyreactivity (PSR sort gate)” value does the source give for “QVQLVDSGGGLVQAGGSLRLSCAASGRTFRSNAMGWYRQAPGKERELVAAITGSGGRTYYADSVKGRFTISRDNAKNTVYLQMNSLKPEDTAVYYCAARGRAHWHYDDWGQGTQVTVSS” here?
Its value is “high polyreactivity”.

With “QVQLVDSGGGLVQAGGSLRLSCAASGRTIHYYAMGWYRQAPGKEREVVAVISSGGSTYYADSVKGRFTISRDNAKNTVYLQMNSLKPEDTAVYYCAALSSRTYKTGYYTYDYWGQGTQVTVSS” as the sequence, how does the “polyreactivity (PSR sort gate)” value read?
The value was “low polyreactivity”.

Which “polyreactivity (PSR sort gate)” value does the source give for “QVQLVDSGGGLVQAGGSLRLSCAASGSIFGSNAMGWYRQAPGKERELVAAITWSDGSTYYADSVKGRFTISRDNAKNTVYLQMNSLKPEDTAVYYCATDYGYSWYDYWGQGTQVTVSS” here?
Its value is “low polyreactivity”.

For “QVQLVDSGGGLVQAGGSLRLSCAASGSIFVSYTMGRYRQAPGKEREFVAAITKSGGSTYYADSVKGRFTISRDNAKNTVYLQMNSLKPEDTAVYYCAADWLHYVYEGYDYWGQGTQVTVSS”, which “polyreactivity (PSR sort gate)” value is on record?
Its value is “low polyreactivity”.

For “QVQLVDSGGGLVQAGGSLRLSCAASGSIILLNAMGWYRQAPGKEREMVARIRINGGSTYYADSVKGRFTISRDNAKNTVYLKMNSLKPEDTAVYYCAADDTGPYSNWYDYWGQGTQVTVSS”, which “polyreactivity (PSR sort gate)” value is on record?
The value was “low polyreactivity”.

For “QVQLVDSGGGLVQAGGSLRLSCAASGSILLYYTMGWYRPAPGKERELVATMSSSGGSTYYADSVKGRFTISRDNAKNTVYLQMNSLKPEDTAVYYCNADYIYYGTTYEYWGQGTQVTVSS”, which “polyreactivity (PSR sort gate)” value is on record?
Its value is “low polyreactivity”.

For “QVQLVDSGGGLVQAGGSLRLSCAASGSNFVWYAMGWYIQAPGKEREMVAAITWSGGSTYYADSVKGRFTISRDNAKNTVYLPMNSLKPEDSAVYYFNAVSYRYYSKLGSWGQGTQVTLSS”, which “polyreactivity (PSR sort gate)” value is on record?
The value was “high polyreactivity”.

Which “polyreactivity (PSR sort gate)” value does the source give for “QVQLVDSGGGLVQAGGSLRLSCAASGSTFKIYAMGWYRQAPGKERELVARITGRGGSTYYADSVKGRFTISRDNAKNTVYLQMNSLKPEDTAVYYCAAAKRYYSEMYWGQGTQVTVSS” here?
The value was “high polyreactivity”.

For “QVQLVDSGGGLVQAGGSLRLSCAASGSTFLAYAMGSSRQAPGKQTELVAAITWNSCSSTFYADSVKGRFTISRDNAKNSVYLQMNSLKPEDTAVYYCNADVPSPAYYGDGTPYREDNYWGQGTQVTVSS”, which “polyreactivity (PSR sort gate)” value is on record?
The value was “low polyreactivity”.

With “QVQLVDSGGGLVQAGGSLRLSCAASGSTFSRYAMGWYRQARGKERELVAAITDGGDSTYYADSVKGRFTISRDNAKNTVYLQMNSLKPEDTAGYYCNADRLQYGRTPHYDYWGQGTQVTVSS” as the sequence, how does the “polyreactivity (PSR sort gate)” value read?
The value was “low polyreactivity”.

For “QVQLVDSGGGLVQAGGSLRLSCAASGSTFSSYAMGWYRQAPGKERELVDVITRGTSTNYADSVKGRFTISRDNAKNTVYLQMNSLKPEDTAVYYCNSRRGSRRFGYCGQGTQVTVSS”, which “polyreactivity (PSR sort gate)” value is on record?
The value was “high polyreactivity”.

With “QVQLVDSGGGLVQAGGSLRLSCAASGSTFSVYAMVWYRQAPGKERELVAAISKRGTSTYYADSLKGRFTISRDYAKNTLYLQKNSLKPEDTAVYYCAAEAYRPSPFYYWGQGTQVTFSS” as the sequence, how does the “polyreactivity (PSR sort gate)” value read?
Its value is “high polyreactivity”.

Which “polyreactivity (PSR sort gate)” value does the source give for “QVQLVDSGGGLVQAGGSLRLSCAASGSTFVYYAMGWYRQAPGKERELVAAISSGGRTYYADSVKGRFTISRDNAKNTVYFQMNSLKPEDTAVYYCATYPRYSKSPGYDSWGQGTQVTVSS” here?
The value was “high polyreactivity”.

With “QVQLVDSGGGLVQAGGSLRLSCAASGYIFHLYGMGWYRQAPGKERELVARISYRGGSTYYADSVKGRFTISRDNAKNTVYLQMHSLKPEDTAVYYCAKDYYKHYYWGQGTQVTVSS” as the sequence, how does the “polyreactivity (PSR sort gate)” value read?
The value was “high polyreactivity”.

Which “polyreactivity (PSR sort gate)” value does the source give for “QVQLVDSGGGLVQAGGSLRLSCAASGYIFYFNAMGWYRQAPGKEREMVAAISDRDDSTYYADSVKGRFTISRDNAKNTVYLQMNSLKPEDTAVYYCAADGYTYVDDPYDYWGQGTQVTVSS” here?
The value was “low polyreactivity”.

For “QVQLVDSGGGLVQAGGSLRLSCAASVQTIYQKAMGWYRPAPGKERELVAAITRSGGSTRYADSVKGRFTISRDNAKNTVYLEMSSLKPEDTSVFYCNARYRIGSWYEFGSWGQGTQVTVSS”, which “polyreactivity (PSR sort gate)” value is on record?
The value was “high polyreactivity”.

For “QVQLVDSGGGLVQAGGSLRLSCAAYGRIFGIYTMGWYRQAPGKERELVAAIRFSGSRTYYADSVKGRFTISRDNAKNTVYLQMNSLKPEDTAVYYCNADWWFYRLRNEYWGQGTQVTVSS”, which “polyreactivity (PSR sort gate)” value is on record?
The value was “high polyreactivity”.

Which “polyreactivity (PSR sort gate)” value does the source give for “QVQLVDSGGGLVQAGGSLRLSCADSGSIFPANVMGWYRQAPGKERELVAAISRGGSTYYADSVKGRFTISRDNAKNTVYLQMNSLKPEDTAVYYCAVAFRGSYRPAYYYWGQGTQVTVSS” here?
The value was “high polyreactivity”.

Source: the nanobody polyreactivity screen of Harvey et al. (2022)
